In this data set the test system is a1;alpha2 (Saccharomyces cerevisiae;Saccharomyces cerevisiae). Description: EMSA. Conditions: 1.4 uM a1 constant, 5-fold dilutions of alpha2 from 82 nM, protein dilution buffer 50 mM Tris pH 7.6, 1 mM EDTA, 500 mM NaCl, 10 mM 2-mercaptoethanol ….
With YKL162C ORF site, the binding signal (fold decrease in affinity vs HO(10)) was determined as 10. Then PRM9 ORF site, with 10; and URB1 ORF site, with 25.

Substance PRM8 ORF site showed a binding signal (fold decrease in affinity vs HO(10)) of 5.

On to CDC25 ORF site, for which the binding signal (fold decrease in affinity vs HO(10)) is 5.
